Assay results taken from patent US20200216495A1 (ADRX, published 2020).
Where two headings read alike, the source gives them in different places. Square brackets hold non-standard residues; d marks the D form. Primed or numbered codes have the meaning given here. Ends that are not written are not given here. dCha = N[C@H](CC1CCCCC1)C(=O)O; dNle = CCCC[C@@H](N)C(=O)O; PEG2′ = not defined here; Tam = not defined here

T1: Tau40 P301L protein (human)
T1 sequence: WIKIRR

T2: Ac-VQIINK-NH2 (SEQ ID NO: 23)
T2 sequence (peptide, N-terminal acetyl (Ac); C-terminal amide (NH2)): RLKIRW

T3: His-Tau40 P301L Tau fibrils (human)
T3 chain: RLRIRW


Tests used:
Assay in all cases: cell-based or functional assay
[1] = target: T1, Tau40 P301L protein (human)
[2] = target: T2, Ac-VQIINK-NH2 (SEQ ID NO: 23)
Tau40 P301L protein = Tau40 P301L protein (human); remark: listed apart in the source
[3] = target: T3, His-Tau40 P301L Tau fibrils
[4] = target: T3, His-Tau40 P301L Tau fibrils

Row | Binder | VQIINK Inhibition IC50 [2] [µm] | IC50, Tau40 assay-Modified peptides (ThT) (Tau40 P301L protein) [µM] | further results
1 | [dW][dR][dNle][dK][dNle][dR][dW] [wrukurw] | 1.73 | – | IC50, Tau40 assay (ThT) [1]: 7.21 µM
2 | [dW][dR][dCha][dK][dCha][dR][dW] (not fully specified; printed as wrbkbrw) [wrbkbrw] | 0.77 | – | IC50, Tau40 assay (ThT) [1]: 9.33 µM
3 | [dW][dR][dL][dK][dCha][dR][dW] (not fully specified; printed as wrlkbrw) [wrlkbrw] | 0.35 | – | –
4 | [dW][dR][dCha][dK][dV][dR][dW] (not fully specified; printed as wrbkvrw) [wrbkvrw] | 0.41 | – | –
5 | [dL][dK][dI][dR][dCha][dH][dY] [lkirbhy (PEPTIDE ID NO: 228)] | – | – | IC50, Tau40 assay (ThT) [1]: 0.9 µM
6 | [dL][dK][dNle][dR][dNle][dH][dY] [lkuruhy] | 0.87 | – | –
7 | [dNle][dK][dI][dR][dI][dH][dY] [ukirihy] | 1.12 | – | –
8 | [dW][dR][dL][dK][dNle][dR][dW] [wrlkurw] | 1.41 | – | –
9 | [dL][dK][dNle][dR][dI][dH][dY] [lkurihy] | 1.5 | – | –
10 | [dL][dK][dI][dR][dNle][dH][dY] [lkiruhy] | 2.07 | – | –
11 | [dW][dR][dNle][dK][dV][dR][dW] [wrukvrw] | 2.1 | – | –
12 | [dNle][dR][dL][dK][dV][dR][dW] [urlkvrw] | 2.29 | – | –
13 | [dCha][dR][dL][dK][dV][dR][dW] (not fully specified; printed as brlkvrw) [brlkvrw] | 2.31 | – | –
14 | [dCha][dK][dI][dR][dI][dH][dY] [bkirihy (PEPTIDE ID NO: 249)] | – | – | IC50, Tau40 assay (ThT) [1]: 1.09 µM
15 | RRRRRRRRRGGSGG[dR][dL][dK][dV][dR][dW] [RRRRRRRRR-GGSGG-rlkvrw] | – | 6.07 | –
16 | Tam-RRRRRRRRRGGSGG[dR][dL][dK][dV][dR][dW] (reading uncertain; also: printed as Tam-RRRRRRRRR-GGSGG-rlkvrw) [Tam-RRRRRRRRR-GGSGG-rlkvrw] | – | 20.1 | –

Row | Binder | VQIINK Inhibition IC50 [2] [µm] | IC50, Tau40 assay-Modified peptides (ThT) (Tau40 P301L protein) [µM] | further results
17 | Tam-YGRKKRRQRRRGGSGG[dR][dL][dK][dV][dR][dW] (reading uncertain) [Tam-[…]-GGSGG-rlkvrw] | – | 6.6 | –
18 | YGRKKRRQRRRGGSGG[dR][dL][dK][dV][dR][dW] [[…]-GGSGG-rlkvrw] | – | 1.73 | –
19 | Tam-RRRRRRRRRRGGSGG[dL][dE][dL][dK][dI][dK][dF][dW] (reading uncertain; also: printed as Tam-RRRRRRRRRR-GGSGG-lelkikfw) [Tam-RRRRRRRRRR-GGSGG-lelkikfw] | – | 8.71 | EC50, HEK cell assay (TauRD(P301S) split luciferase, seeded with tau fibrils) [3]: 12.1 µM
20 | Tam-RRRRRRRRRRGGSGG[dT][dL][dK][dI][dV][dW] (reading uncertain; also: printed as Tam-RRRRRRRRRR-GGSGG-tlkivw) [Tam-RRRRRRRRRR-GGSGG-tlkivw] | – | 4.92 | EC50, HEK cell assay (TauRD(P301S) split luciferase, seeded with tau fibrils) [3]: 3.6 µM
21 | Tam-RRRRRRRRRRGGSGG[dW][dK][dV][dQ][dV][dR][dL][dW] (reading uncertain; also: printed as Tam-RRRRRRRRRR-GGSGG-wkvqvrlw) [Tam-RRRRRRRRRR-GGSGG-wkvqvrlw] | – | 5.53 | EC50, HEK cell assay (TauRD(P301S) split luciferase, seeded with tau fibrils) [3]: 1.5 µM
22 | Tam-RRRRRRRRRGGSGG[dW][dR][dL][dK][dV][dR][dW][dW] (reading uncertain; also: printed as Tam-RRRRRRRRR-GGSGG-wrlkvrww) [Tam-RRRRRRRRR-GGSGG-wrlkvrww] | – | 20.5 | EC50, HEK cell assay (TauRD(P301S) split luciferase, seeded with tau fibrils) [3]: 1.5 µM
23 | Tam-YGRKKRRQRRRGGSGG[dW][dR][dL][dK][dV][dR][dW][dW] (reading uncertain) [Tam-[…]-GGSGG-wrlkvrww] | – | 6.6 | EC50, HEK cell assay (TauRD(P301S) split luciferase, seeded with tau fibrils) [3]: 1.8 µM
24 | Tam-RRRRRRRRRRGGSGG[dW][dR][dI][dW][dI][dR][dY][dW] (reading uncertain; also: printed as Tam-RRRRRRRRRR-GGSGG-wriwiryw) [Tam-RRRRRRRRRR-GGSGG-wriwiryw] | – | 4.94 | –
25 | {TAMRA5-PEG2′}-[dW][dR][dA][dK][dA][dR][dA][dW]-OH [TAMRA5-PEG2-wrakaraw-OH] | – | 9.17 | –
26 | Tam-RRRRRRRRRRGGSGG[dE][dL][dK][dI][dV][dW] (reading uncertain; also: printed as Tam-RRRRRRRRRR-GGSGG-elkivw) [Tam-RRRRRRRRRR-GGSGG-elkivw] | – | – | EC50, HEK cell assay (TauRD(P301S) split luciferase, seeded with tau fibrils) [3]: 5.6 µM
27 | RRRRRRRRRRGGSGG[dW][dR][dL][dK][dV][dR][dW][dW] [RRRRRRRRRR-GGSGG-wrlkvrww] | – | – | EC50, HEK cell assay (TauRD(P301S) split luciferase, seeded with tau fibrils) [4]: 2.3 µM; EC50, HEK cell assay (TauRD(P301S) split luciferase, seeded with tau fibrils) [3]: 1.7 µM
28 | RRRRRRRRRRGGSGG[dL][dE][dL][dK][dI][dK][dF][dW] [RRRRRRRRRR-GGSGG-lelkikfw] | – | – | EC50, HEK cell assay (TauRD(P301S) split luciferase, seeded with tau fibrils) [4]: 16.4 µM
29 | RRRRRRRRRRGGSGG[dE][dL][dK][dI][dV][dW] [RRRRRRRRRR-GGSGG-elkivw] | – | – | EC50, HEK cell assay (TauRD(P301S) split luciferase, seeded with tau fibrils) [4]: 11.7 µM
30 | RRRRRRRRRRGGSGG[dT][dL][dK][dI][dV][dW] [RRRRRRRRRR-GGSGG-tlkivw] | – | – | EC50, HEK cell assay (TauRD(P301S) split luciferase, seeded with tau fibrils) [4]: 2.9 µM
31 | RRRRRRRRRRGGSGG[dW][dK][dV][dQ][dV][dR][dL][dW] [RRRRRRRRRR-GGSGG-wkvqvrlw] | – | – | EC50, HEK cell assay (TauRD(P301S) split luciferase, seeded with tau fibrils) [4]: 2.1 µM
32 | RRRRRRRRRGGSGG[dW][dR][dI][dW][dI][dR][dY][dW] [RRRRRRRRR-GGSGG-wriwiryw] | – | – | EC50, HEK cell assay (TauRD(P301S) split luciferase, seeded with tau fibrils) [4]: 0.9 µM
